Patent US12497461B2, “Human NTCP-binding antibody capable of inhibiting infection of hepatitis B virus (HBV) to human hepatocytes” (priority 2019, dated 2025)
Several values for one entry are separate records, joined by “and”; a condition that tells them apart may be missing. Identical values can stand only once.

Key:
[1] = system: HBV / NTCP double mutant (PE276, 277AA); test: HBV infection of cells expressing NTCP double mutant in the presence of antibody; format: cell-based, hepatitis B virus (HBV); conditions: FIG. 7
Source text: To establish NTCP expression cells, HepG2 cells or Huh7 cells were infected with a lentiviral vector having a nucleic acid encoding a wild-type NTCP or each of NTCP mutants. Forty-eight hours after infection, the cells were subjected to an immunofluorescence assay or a viral infection assay.

[2] = target: T1, epitope region-containing peptide fragment (AFPPEVIGPLFFFPLLYMIFQLGEG-biotin) (Homo sapiens, UniProt Q14973); test: Surface plasmon resonance assay (BIAcore) of antigen binding affinity; conditions: 25° C.; antibody immobilized on CM5 chip
T1 sequence (Q14973 273-297 limits assumed): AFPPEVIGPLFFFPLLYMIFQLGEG
Description: In short, a carboxymethylated dextran biosensor chip (CM5, BIAcore Inc.) was activated by N-ethyl-N′-(3-dimethylaminopropyl)-carbodiimide hydrochloride (EDC) and N-hydroxysuccinimide (NHS) in accordance with the provider's instruction. An anti-mouse IgG antibody was diluted with 10 mM sodium acetate (pH5.2) up to 30 μg/ml. The dilution was injected at a flow rate of 5 to 10 μl/minute such that the reaction unit (RU) of the protein bound became 9,000 to 14,000 RU. In contrast, an anti-human IgG antibody was diluted with 10 mM sodium acetate (pH5.0) up to 25 μg/ml. The diluted antibody was injected at a flow rate of 5 to 10 μl/minute such that the reaction unit (RU) of the protein bound became 9,000 to 14,000 RU. After injection of each of the anti IgG antibodies, 1 M ethanolamine was injected in order to block unreactive groups. For kinetic measurement, N6HB426 antibody diluted with a running buffer (HBS-P: 10 mM HEPES pH7.5, 150 mM NaCl, 0.005% NP40) up to 10 μg/ml was immobilized onto CM5 chip via the anti-mouse IgG antibody, in advance. To the chip, a solution of an epitope region-containing peptide fragment ([…]-biotin: SEQ ID NO: 24) diluted with the running buffers at different concentrations was added at 25° C. at a flow rate of 10 μl/minute for 2 minutes. In contrast, the recombinant N6HB426 human chimeric IgG4 antibody was diluted with the running buffer up to 10 μg/ml and then was immobilized onto a sensor chip (CM5) via the anti-human IgG antibody in advance. To the chip, a solution of an epitope region-containing peptide fragment diluted with the running buffers at different concentrations was added at 25° C. at a flow rate of 10 μl/minute for 2 minutes.
The refractive index of the solution varied in correlation to the mass of a chip surface changed when a peptide fragment molecule bound to N6HB426 antibody on the sensor chip, was monitored in real-time. Using simple one-to-one Langmuir binding model (BIAcore Evaluation software version 3.1) by fitting sensor grams of antigen-antibody association and dissociation at the same time, association rate (Ka) and dissociation rate (Kd) were calculated. A Kd/Ka ratio was calculated to obtain an equilibrium dissociation constant (KD).

[3] = format: in vivo, human hepatocyte chimeric mouse (uPA/SCID); conditions: administration group; highest at HBV inoculation, decreased on and after the first week
Description: Preparation of uPA/SCID mice and transplantation of human hepatocytes were carried out in accordance with the report (Tateno C. et al., Am. J. Pathol., 165: 901-912, 2004). To all mice, human hepatocytes taken from the same donor were transplanted. Twenty-three mice, which are obtained by replacing 90% or more of the liver tissue with human hepatocytes by transplantation, were used in the experiment. To these mice, human serum containing 10^3 copies of HBV was administered (inoculated) through the tail vein. One day before and two days after HBV inoculation, 2.0 mg of purified N6HB426-20 antibody was intravenously injected. On Day 7, 14, and 21 after the HBV inoculation, 1.0 mg of the same antibody was intraperitoneally injected. As a control experiment, the same dose of normal mouse IgG antibody (Normal Mouse IgG, Whole Molecule, Purified, FUJIFILM Wako Pure Chemical Corporation) was injected in the same manner. A single mouse died on Day 0 after administration was excluded from the experiment. […]
For quantification of HBV-DNA, 10 μL of mouse serum was used. […] The serum HBV-DNA level was measured by a real-time PCR method using cobas 6800 System (Roche Diagnostics KK, Tokyo, Japan). In this measurement method, the lower limit of quantification was 3.61 log copies/mL. Mouse serum (10 μL) was diluted 30 folds with PBS and bile acid was measured.

[4] = system: HBV; test: HBV-infection inhibition in human hepatocyte chimeric mouse, serum HBV-DNA; format: in vivo, human hepatocyte chimeric mouse (uPA/SCID); design: key to serum HBV DNA level, One week later / serum HBV DNA level, Two weeks later / serum HBV DNA level, Three weeks later / serum HBV DNA level, Four weeks later / serum HBV DNA level, Five weeks later: “—” indicates values below the limit of detection.; “<3.61” indicates values below the limit of quantitation but a specific signal detected indicating an amplification reaction of HBV
Description: Preparation of uPA/SCID mice and transplantation of human hepatocytes were carried out in accordance with the report (Tateno C. et al., Am. J. Pathol., 165: 901-912, 2004). To all mice, human hepatocytes taken from the same donor were transplanted. Twenty-three mice, which are obtained by replacing 90% or more of the liver tissue with human hepatocytes by transplantation, were used in the experiment. To these mice, human serum containing 10^3 copies of HBV was administered (inoculated) through the tail vein. One day before and two days after HBV inoculation, 2.0 mg of purified N6HB426-20 antibody was intravenously injected. On Day 7, 14, and 21 after the HBV inoculation, 1.0 mg of the same antibody was intraperitoneally injected. As a control experiment, the same dose of normal mouse IgG antibody (Normal Mouse IgG, Whole Molecule, Purified, FUJIFILM Wako Pure Chemical Corporation) was injected in the same manner. A single mouse died on Day 0 after administration was excluded from the experiment. Ten mice for each of the groups, in total, 20 mice, were used. After the HBV inoculation, the serum was collected every week. Note that, 3 mice were used for confirmation of infection and not administered with a drug.
For quantification of HBV-DNA, 10 μL of mouse serum was used. Mouse serum was diluted with 690 μL of PBS and DNA was extracted. The serum HBV-DNA level was measured by a real-time PCR method using cobas 6800 System (Roche Diagnostics KK, Tokyo, Japan). In this measurement method, the lower limit of quantification was 3.61 log copies/mL. Mouse serum (10 μL) was diluted 30 folds with PBS and bile acid was measured.

B1: N6HB426-20 antibody: anti-human NTCP monoclonal antibody from a sub-clone of N6HB426 hybridoma; VH SEQ ID NO: 3, VL SEQ ID NO: 4 (antibody, V domains shown)
VH: QVQLQQSGAELVKPGASVKLSCKASDFTFTEYTIHWIKQMSGQGLEWIGWFYPGSGDIKYSEKFKDKATLTADKSSSTVYMELNRLTSEDSAVYFCARHMRDFRGFYYGRFYFDYWGQGTTLTVSS
VL: EIVLTQSPAIMSASPGEKVTITCRASSSVSSSYLHWYQQKSGVSPKLWIYSTSNLASGVPARFSGSGSGTSYSLTINSVEAEDAATYYCQQYSGYRWTFGGGTTLEIKRA
modifications: N6HB426 antibody heavy chain variable region; N6HB426 antiibody light chain variable region
inhibition of HBV infection of cells expressing double mutant (PE276, 277AA) [1]: failed to be inhibited | Ka (1/Ms) association rate [2]: 821.2 M⁻¹ s⁻¹ | Kd (1/s) dissociation rate [2]: 3.19e-08 s⁻¹ | bile acid level in the sera [3]: transient increase | serum HBV-DNA in the 4th week after HBV inoculation ([4]; all of the 10 mice of the group): not detected | serum HBV DNA level, Five weeks later ([4]; test group, individual mice, five weeks after HBV inoculation): — (8×) and <3.61 log copies/mL | serum HBV DNA level, Four weeks later ([4]; test group, individual mice, four weeks after HBV inoculation): — | serum HBV DNA level, One week later ([4]; test group, individual mice, one week after HBV inoculation): — | serum HBV DNA level, Three weeks later ([4]; test group, individual mice, three weeks after HBV inoculation): — | serum HBV DNA level, Two weeks later ([4]; test group, individual mice, two weeks after HBV inoculation): —
